2 molecules from article PMC5458082, “Fibril polymorphism affects immobilized non-amyloid flanking domains of huntingtin exon1 rather than its polyglutamine core” (Nature Communications, 2017) can be followed below.

B1: mutant huntingtin exon1 with a 44-residue polyQ domain, released from the MBP fusion protein by Factor Xa (domain or fragment)
chain: MATLEKLMKAFESLKSFQQQQQQQQQQQQQQQQQQQQQQQQQQQQQQQQQQQQQQQQQQQQPPPPPPPPPPPQLPQPPPQAQPLLPQPQPPPPPPPPPPGPAVAEEPLHRPSGS
notes: huntingtin exon1; The polyQ domain is expanded to 44 Gln against the UniProt entry. numbers count on: this Q44 construct from Met1; linker before the C-terminal His6, translated from the printed DNA; Uniformly 13C,15N-labelled for the ssNMR samples; Forms narrow (~6 nm) fibrils at 37 °C and wide (~15 nm) fibrils at 22 °C; both are the same chain; also called htt exon1; mutant htt exon1; source: …
B2: htt^NTQ23P10K2 peptide (peptide)
peptide: MATLEKLMKAFESLKSFQQQQQQQQQQQQQQQQQQQQQQQPPPPPPPPPPKK
notes: written out from the printed formula Q23P10K2: 23 Gln, 10 Pro, 2 Lys; also called shorter peptides with a 23-residue polyQ domain

Series [1] deals with the molecule itself. Put plainly: fibril formation, seen by negative-stain TEM + FTIR + MAS solid-state NMR; htt exon1 released from the MBP fusion by Factor Xa at 22 or 37 °C in PBS pH 7.4 with 0.02% sodium azide; mature fibrils pelleted and washed.
Series [2] deals with B1. Put plainly: seeded and unseeded aggregation kinetics (ThT fluorescence + HPLC-based sedimentation assay); disaggregated htt^NTQ23P10K2 peptide in PBS pH 7.0 at 37 °C, with or without 20 mol-% sonicated htt exon1 fibril seeds formed at 22 or 37 °C. The conditions noted are these: both partners purified.

B1: the binding result in series [1] is given as “binds”.

As for B2, in series [2], the binding result was “binds”.
